The target in series [1] is mTRQ2-MpTGA (Marchantia polymorpha). The experiment in a line: FRET or BRET; FRET-FLIM; 2in1 vector, donor mTRQ2 on MpTGA, acceptor mVENUS on MpROXY; 40 nuclei of N. benthamiana leaves; mono- or biexponential decay of the donor. For orientation: BRET reads energy transfer from a luciferase to a nearby fluorophore.
A further series addresses T1, MpROXY2 (Marchantia polymorpha (ssp. ruderalis, …, UniProt A0A2R6WT88 1-179)).
T1 sequence: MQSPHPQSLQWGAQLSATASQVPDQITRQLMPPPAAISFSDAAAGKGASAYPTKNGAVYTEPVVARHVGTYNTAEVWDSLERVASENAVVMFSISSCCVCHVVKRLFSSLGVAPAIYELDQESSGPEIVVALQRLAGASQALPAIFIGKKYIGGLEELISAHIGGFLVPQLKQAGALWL
The series is described as follows: EMSA; 0.9 mM DTT or 2 mM diamide; Redox EMSA per Gutsche & Zachgo 2016 (buffer, salt, pH, temperature not stated); 0.9 mM DTT (red) or 2 mM diamide (ox); 500 ng recombinant protein per reaction; native gel. The settings on record: tags: N-terminal MBP, label: 5' 6-FAM, blunt. On the technique in general: Mobility shift assays separate free from complexed probe on a gel.

The next series addresses T2, PAN (…) (Arabidopsis thaliana, UniProt Q9SX27 1-452).
T2 sequence: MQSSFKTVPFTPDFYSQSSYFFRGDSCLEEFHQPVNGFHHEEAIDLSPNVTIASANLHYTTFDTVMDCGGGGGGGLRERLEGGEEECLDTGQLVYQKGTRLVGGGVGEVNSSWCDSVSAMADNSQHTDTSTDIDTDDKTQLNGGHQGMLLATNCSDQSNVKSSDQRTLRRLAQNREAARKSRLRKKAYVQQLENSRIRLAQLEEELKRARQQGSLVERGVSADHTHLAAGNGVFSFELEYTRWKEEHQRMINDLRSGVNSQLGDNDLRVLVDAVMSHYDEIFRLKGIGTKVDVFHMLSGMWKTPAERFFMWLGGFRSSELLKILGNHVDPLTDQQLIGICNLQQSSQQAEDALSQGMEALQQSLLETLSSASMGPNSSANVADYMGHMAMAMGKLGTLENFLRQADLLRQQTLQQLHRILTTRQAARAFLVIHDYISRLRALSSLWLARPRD
The experiment in a line: EMSA; Redox EMSA per Gutsche & Zachgo 2016 (buffer, salt, pH, temperature not stated); 0.9 mM DTT (red) or 2 mM diamide (ox); 500 ng recombinant protein per reaction; native gel. The following applies: tags: N-terminal MBP (per Methods), chain copies: 2, label: 5' 6-FAM, blunt.

In a further series the target is T3, PAN (…);ROXY1 (Arabidopsis thaliana;Arabidopsis …, UniProt Q9SX27;Q96305 1-452;1-136, |).
T3 sequence 1: T2 sequence
T3 sequence 2: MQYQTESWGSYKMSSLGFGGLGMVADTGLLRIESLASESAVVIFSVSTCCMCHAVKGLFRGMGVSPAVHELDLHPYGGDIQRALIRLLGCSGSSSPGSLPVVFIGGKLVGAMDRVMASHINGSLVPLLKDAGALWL
The series is described as follows: EMSA supershift; Redox EMSA per Gutsche & Zachgo 2016 (buffer, salt, pH, temperature not stated); 0.9 mM DTT (red) or 2 mM diamide (ox); 500 ng recombinant protein per reaction; native gel. The following applies: tags: N-terminal MBP (per Methods);MBP, label: 5' 6-FAM, blunt.

Another series deals with T4, PAN (…);MpROXY2 (Arabidopsis thaliana;Marchantia …, UniProt Q9SX27;A0A2R6WT88 1-452;1-179, |).
T4 sequence 1: T2 sequence
T4 sequence 2: T1 sequence
The description is as above. The settings on record: tags: N-terminal MBP (per Methods);N-terminal MBP, label: 5' 6-FAM, blunt.

The molecule mVENUS-MpROXY2 (natural protein) gave a reduced donor fluorescence lifetime (τDA) in series [1] of under 2 ns.

On to mVENUS-MpROXY1 (natural protein), for which the reduced donor fluorescence lifetime (τDA) in series [1] was under 2 ns.

B1: as-1-like (dsDNA)
DNA 1: CTACGTCACTATTTTACTTACGTCATAG
DNA 2: CTATGACGTAAGTAAAATAGTGACGTAG
Take B1: the binding result in the series with MpROXY2 is “no binding”; with PAN (…), “binds”; with PAN (…);ROXY1, “binds”; in the series with PAN (…);MpROXY2, “binds”.

For the origin of these results see article PMC6508501, “Conserved redox‐dependent DNA binding of ROXY glutaredoxins with TGA transcription factors”.
